Experiments:
[1] = biological target: T1, recombinant purified human IL-12 p70 (human, UniProt P29459 23-219); experiment: SPR (Biacore), mAb captured on anti-mouse IgG Fc, IL-12 p70 as analyte
T1 construct: Disulfide-linked heterodimer of p35 and p40; also called hIL-12; Hu IL-12
T1 sequence 1: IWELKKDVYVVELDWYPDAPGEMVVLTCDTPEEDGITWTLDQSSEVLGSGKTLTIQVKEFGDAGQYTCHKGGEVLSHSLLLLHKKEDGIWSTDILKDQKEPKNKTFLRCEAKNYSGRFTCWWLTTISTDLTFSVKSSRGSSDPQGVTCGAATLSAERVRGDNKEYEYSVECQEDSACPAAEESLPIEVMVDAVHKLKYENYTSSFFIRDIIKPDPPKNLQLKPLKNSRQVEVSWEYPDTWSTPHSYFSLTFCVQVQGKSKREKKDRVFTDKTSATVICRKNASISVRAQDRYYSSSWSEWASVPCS
T1 sequence 2: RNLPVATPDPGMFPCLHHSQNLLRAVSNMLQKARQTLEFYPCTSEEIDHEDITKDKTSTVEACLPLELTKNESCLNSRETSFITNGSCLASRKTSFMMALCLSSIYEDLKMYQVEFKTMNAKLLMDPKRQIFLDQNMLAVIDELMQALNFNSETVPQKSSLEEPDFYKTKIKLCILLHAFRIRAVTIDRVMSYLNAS
Description: The BIACORE assay (Biacore, Inc, Piscataway, N.J.) determines the affinity of antibodies with kinetic measurements of on-, off-rate constants. Binding of antibodies to recombinant purified human IL-12 p70 or recombinant purified human IL-12 p40 were determined by surface plasmon resonance-based measurements with a Biacore® 3000 instrument (Biacore® AB, Uppsala, Sweden) using running HBS-EP (10 mM HEPES [pH 7.4], 150 mM NaCl, 3 mM EDTA, and 0.005% surfactant P20) at 25° C. All chemicals were obtained from Biacore® AB (Uppsala, Sweden) or otherwise from a different source as described in the text. Approximately 5000 RU of goat anti-mouse IgG, (Fcγ), fragment specific polyclonal antibody (Pierce Biotechnology Inc, Rockford, Ill.) diluted in 10 mM sodium acetate (pH 4.5) was directly immobilized across a CM5 research grade biosensor chip using a standard amine coupling kit according to manufacturer's instructions and procedures at 25 μg/ml. Unreacted moieties on the biosensor surface were blocked with ethanolamine. Modified carboxymethyl dextran surface in flowcell 2 and 4 was used as a reaction surface. Unmodified carboxymethyl dextran without goat anti-mouse IgG in flow cell 1 and 3 was used as the reference surface. For kinetic analysis, rate equations derived from the 1:1 Langmuir binding model were fitted simultaneously to association and dissociation phases of all eight injections (using global fit analysis) with the use of Biaevaluation 4.0.1 software. Purified antibodies were diluted in HEPES-buffered saline for capture across goat anti-mouse IgG specific reaction surfaces. Mouse antibodies to be captured as a ligand (25 μg/ml) were injected over reaction matrices at a flow rate of 5 μl/min. The association and dissociation rate constants, kₒₙ (unit M⁻¹ s⁻¹) and koff (unit s⁻¹) were determined under a continuous flow rate of 25 μl/min. Rate constants were derived by making kinetic binding measurements at ten different antigen concentrations ranging from 10-200 nM. The equilibrium dissociation constant (unit M) of the reaction between mouse antibodies and recombinant purified human IL-12 p70 or recombinant purified human IL-12 p40 was then calculated from the kinetic rate constants by the following formula: KD=koff/kₒₙ. Binding is recorded as a function of time and kinetic rate constants are calculated.

[2] = biological target: T1, recombinant purified human IL-12 p70; experiment: competition ELISA on coated human IL-12, competitor of 0.8 µg/ml biotinylated 8E1, Expt. 1
Description: (§1) MaxiSorp ELISA plates (Nalge Nunc International) were coated overnight at 4° C. with 100 μl/well of 1.0 μg/ml human IL-12 in 0.2 M sodium carbonate-bicarbonate buffer, pH 9.4, washed with Wash Buffer (PBS containing 0.1% Tween 20), and blocked for 1 hr at room temperature with 300 μl/well of SuperBlock Blocking Buffer in TBS (Pierce Chemical Company). […] As isotype controls, 100 μl/well of 100 μg/ml mouse IgG 1/κ (MuFd79) or humanized IgG1/κ (HuFd79) monoclonal antibodies in ELISA buffer was used. As a no-competitor control, 100 μl/well of ELISA Buffer was used. After incubating the plates for 1 hr at room temperature, and washing with Wash Buffer, bound antibodies were detected using 100 μl/well of 1 μg/ml HRP-conjugated streptavidin (Pierce Chemical Company) in ELISA buffer. After incubating for 1 hr at room temperature, and washing with Wash Buffer, color development was performed by adding 100 μl/well of ABTS Peroxidase Substrate/Peroxidase Solution B (KPL, Inc.). After incubating for 5 min at room temperature, color development was stopped by adding 50 μl/well of 2% oxalic acid. Absorbance was read at 415 nm.
(§2) The affinity of 8E1.4, 8E1.5 and 8E1.6 to human IL-12 was analyzed by competition ELISA as described above.

[3] = biological target: T1, recombinant purified human IL-12 p70; experiment: competition ELISA on coated human IL-12, competitor of 0.8 µg/ml biotinylated 8E1, Expt. 2
Description: MaxiSorp ELISA plates (Nalge Nunc International) were coated overnight at 4° C. with 100 μl/well of 1.0 μg/ml human IL-12 in 0.2 M sodium carbonate-bicarbonate buffer, pH 9.4, washed with Wash Buffer (PBS containing 0.1% Tween 20), and blocked for 1 hr at room temperature with 300 μl/well of SuperBlock Blocking Buffer in TBS (Pierce Chemical Company). After washing with Wash Buffer, a mixture of biotinylated 8E 1 ([…] final concentration) and competitor antibody (8E1 or 8E1.4 or 8E1.5 or 8E1.6) starting at 100 μg/ml final concentration and serially diluted 3-fold) in 100 μl/well of ELISA buffer was added in duplicate. As isotype controls, 100 μl/well of 100 μg/ml mouse IgG 1/κ (MuFd79) or humanized IgG1/κ (HuFd79) monoclonal antibodies in ELISA buffer was used. As a no-competitor control, 100 μl/well of ELISA Buffer was used. After incubating the plates for 1 hr at room temperature, and washing with Wash Buffer, bound antibodies were detected using 100 μl/well of 1 μg/ml HRP-conjugated streptavidin (Pierce Chemical Company) in ELISA buffer. After incubating for 1 hr at room temperature, and washing with Wash Buffer, color development was performed by adding 100 μl/well of ABTS Peroxidase Substrate/Peroxidase Solution B (KPL, Inc.). […] Absorbance was read at 415 nm.
as §2

[4] = biological target: T1, recombinant purified human IL-12 p70; experiment: competition ELISA on coated human IL-12, competitor of 0.8 µg/ml biotinylated 8E1, average
Description: as §1, §2

B1: murine anti-human IL-12p40 monoclonal antibody 8E1 (antibody, V domains shown)
VH: EVKLVESGGGLVQPGGSRKLSCAASGFTFSDYGMVWVRQAPGKGLEWVASISSGSSNIYYADTVKGRFTISRDDPNNTLFLQMRSLRSEDTAMYYCARNPYWGQGTTLTVSS
VL: DIVMTQSQKFMSTSVGDRVSVTCKASQNVGTNVAWYQQKPGQSPKGLIYSASHRYSGVPDRFAGSGSGTDFTLTISNVQSEDLAEYFCQQYNSYPLTFGGGTKLELKR
notes: Murine mAb; also called biotinylated 8E1
[1]
  Kd: 0.074 nM
  koff: 5.1e-05 s⁻¹
  kon: 690000 M⁻¹ s⁻¹
[2]
  IC50: 2.63 µg/mL
[3]
  IC50: 2.78 µg/mL
[4]
  IC50: 2.56 µg/mL
